Legend:
[1] = molecular target: PfCSPm (PfCSP_SAmut_C5S), stabilized mutant form of PfCSP (Plasmodium falciparum) (UniProt Q7K740); assay: ITC, antibody titrated into PfCSPm; second site
[2] = molecular target: PfCSPm (PfCSP_SAmut_C5S), stabilized mutant form of PfCSP (Plasmodium falciparum) (UniProt Q7K740); assay: ITC, antibody titrated into PfCSPm, pH 7.4, 25 C, two sets of sites; first (junctional) site
[3] = molecular target: PfCSPm (PfCSP_SAmut_C5S), stabilized mutant form of PfCSP (Plasmodium falciparum) (UniProt Q7K740); assay: ITC, antibody titrated into PfCSPm, pH 7.4, 25 C, two sets of sites; second site
[4] = molecular target: PfCSPm (PfCSP_SAmut_C5S), stabilized mutant form of PfCSP (Plasmodium falciparum) (UniProt Q7K740); assay: ITC, two-site model
[5] = molecular target: PfCSPm (PfCSP_SAmut_C5S), stabilized mutant form of PfCSP (Plasmodium falciparum) (UniProt Q7K740); assay: ITC, antibody titrated into PfCSPm; first site
[6] = molecular target: PfCSPm (PfCSP_SAmut_C5S), stabilized mutant form of PfCSP (Plasmodium falciparum) (UniProt Q7K740); assay: ITC
[7] = molecular target: PfCSPm (PfCSP_SAmut_C5S), stabilized mutant form of PfCSP (Plasmodium falciparum) (UniProt Q7K740); assay: ITC, two-site model [lower table]

mature CIS43 antibody (IgG)
stoichiometry [1]: 5.8
Kd [2]: 0.018 µM
Kd [3]: 0.063 µM
-TΔS1 [4]: 56.1 kJ/mol
-TΔS2 [4]: 3.77 kJ/mol
ΔG1 [4]: -44.4 kJ/mol
ΔG2 [4]: -41 kJ/mol
ΔH1 [4]: -100 kJ/mol
ΔH2 [4]: -44.8 kJ/mol
stoichiometry [5]: 2.4

mature CIS43 with L98I in the heavy chain (antibody)
Kd [6]: 0.011 µM
change in ΔG [6]: 0.837 kJ/mol
fold affinity increase over mature CIS43 [6]: 1.6 fold
-TΔS1 [7]: 36.8 kJ/mol
-TΔS2 [7]: -3.77 kJ/mol
ΔG1 [7]: -45.2 kJ/mol
ΔG2 [7]: -42.7 kJ/mol
ΔH1 [7]: -82 kJ/mol
ΔH2 [7]: -38.9 kJ/mol

Source: patent US20250011406A1
